{"source": "the NTF2 design screens of Basanta et al. (2020)"}
{"assay": "protease stability score; higher = more stable; yeast display proteolysis, trypsin and chymotrypsin;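 further: log10 excess protease needed over predicted unfolded state with 0 meaning unfolded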"}
{"sequence": "DQNDRAEEFFKHWQRILTKNDPDEARKQMDKDVNVVYGDKRYHGREEVVKYLRDNMDRVDSIRVKLDDFKVDNGKATFHARFRQTHNGKDEQHNVVIVAQFKNGKLRAQSYHES", "protease stability score": 1.01}
{"sequence": "DQQDVDRFTEFLEAVERGDEDRLRELMDKDAKQKVGDKTIEGSEKQVNELNDRARRMRIVLEVHDVKVHNGRLEARADLLVNVNGQPVRDDVVVRVQVHNGKITHVEMHFPEEFKRQMRR", "protease stability score": 0.858}
{"sequence": "DQQHTASKVLSDMVKAIQDGDEDHISEQADENVKIRIGDKEYHGKENARRMLKEIQHQVDHISVEVKSVSSHNGRVNVRAEVQMRFNGRSTSYDVTAIFRYNNGQLRLYSVSAR", "protease stability score": 0.242}
{"sequence": "DQQKEAEKFARDMRRALDTGDERDVANLFPPDAKLRYGDKSFHGMDDIFKWVVTVLRQADHIHFQVRSVRDQGDKADIEFELRYDVNGQDRSRIFHAEVRHNGDNVQVEMNVEK", "protease stability score": 0.326}
{"sequence": "DQQTDAKEHAETVNKVLTHNDPNKLRELFDEDARMRVGDKEYRGQEQVDHVLKEIADRVDHVDVKLESVSLENGSVKVVIRAVFDDNGRKNDVHIDLVAVIDNGDLYIKEIRFE", "protease stability score": 0.301}
{"sequence": "DQRDLEHVNHVLQTGDPDQFRDLVDPNARIRVGDKTIHGRENVLTKYRRLMEQADHLQIDSIRNHGEFVVFDFRMTVNGRQVDAEVNIHVKDGQIKEIEIRFRSEEQEDRWRKQAD", "protease stability score": 1.42}
{"sequence": "DQRDQRKANEIIKTNDESKLAKQADKDARLVVGNKEYHGKEQVQHFADQLEKMFDHLEITHYDSHGENFNVVAVMDVNGQRVQYYWRFRVHNGQFKYIEFRARDEETQKTIHRLLG", "protease stability score": 0.606}
{"sequence": "DQRDVEKIATKLSEVVRTGDPHEFAKMADPNAKVEVGDKSWRGHEEIRDWLKQITDEADSIHVDSVTAQGDKIDMTITVDFNGKRVQFDIKIQMENGRIKKMKLDPDQQRKLER", "protease stability score": 1.04}
{"sequence": "DQRDVKKAEHLLRILETGNESELKKMMDPNARARVGDTTYHGMDDFVRKLTHMRDRAKFEIKEYSATDHNGHIRVHVRREVNFNGRPDRVSFIVRFDIENGKVRSVIFNLPRELLEREKK", "protease stability score": 0.429}
{"sequence": "DQREIVTKILRDFVKAFKTGDQDKYEKLVDKDVEYNIGDKTYHGREEAKKLFRELVKQVDHYSVHYKSISVRNGRAKVEAIQYYKHDGRTYHNKVSYTFRIQGDKIRMQDATFS", "protease stability score": 0.602}
{"sequence": "DQRERQEHAEHFNRVLQTNDPDRIKKLFDPNAKLQIGDSTFTGREDIDDAAKELKEQADHITVDRVHVHGNKVTLRFVMNVDGKSADATVTMIVKNGRAKEVHFDPRLEEQIKK", "protease stability score": -0.407}
{"sequence": "DQRERVKKLFDRFQHNIKHGDKSKATNQFPPDVTMSIGDEDLHGRDAAKRYADNVANNADRFHHEIQDYKQKGNNANLRVKIVLNHNGTNHSHEADWVAVVHNGQARLKEVKFD", "protease stability score": -0.078}
{"sequence": "DQRLWERFVKDLEENDEKSWQDLVDKDAKVEVGDTSYQGREHALTAIQKWVHQVDHVEIKSYRIHGDNVQIRMEVVINGRKMQVTVQAHLHNGKMKNIHMEATDRHVVEKLRELIS", "protease stability score": 0.039}
{"sequence": "DQRTREKVAEDIDNNDPQKLQDQADENVRVEYGNKVVHGREQMQEWARSLKDDVDSLEVDHVELDGDKIDARVNFNVNGRRVVFTIEADAHNGTIQRLRMTVTSEEQDTHMKQAAN", "protease stability score": -0.209}
{"sequence": "DQSELRDFVEEFLEIFRHGNEDDARRLVDKDATAKVGDKTYNGEEQVLDFLKQLRNRADHVQIDTFRVEGDKMEAHMRLNVNGKTVQVVIQAEVRNGRIKHFRMDPNDLRKLEK", "protease stability score": 0.657}
{"sequence": "DQTALKVFKEYLEVVLNGDEHEAVELVDKDVRMNVGDKRWHGQEHIEREIRNQTRHSRLDYDHVRFEDDGDKAVFKRTVRFTHNGKPDSSRNVMHATADNGRIKSMKVEDDR", "protease stability score": -0.334}
{"sequence": "DQTDEAEKWMEHITRVLHHNDTDQMLELADENVKIDIGDKTYHGREQFSQLLRDIAERVDHFSQRIDSIRVNGDKVRIDFKNVLDHNGRKHSQQVVVEINRTNGQWRLKSLHKK", "protease stability score": 0.151}
{"sequence": "DRDDFRRVIHEVQKALKHGDREQLRRLLDENAKVKVGDKEYQGDERAVKVMTTIANKADRMEYKDIHLHGDSVYINVVLNHNGKKDTVVWVIAVNNGKVQFFAQETR", "protease stability score": 1.01}
{"sequence": "DRDEVHHLHELYKAIEDGDDKKAQDLMDENAKARIGDKHFRGMQHFVETLKKEKDHMRVKIDNMRFTERPNRVVVNIEVKRSNNGEPESEVYRAFADAHNGKFVNLVIEHNQ", "protease stability score": -0.056}
{"sequence": "DRDKERKVIEKLMNALQNNDENQIRKLIDPNARLVYGDKELHGREEVVKFLVTLLNQVDRIEYKSYDFHNGHANIDFTLRFNGQNATFTMEIRVKNGRVDHITLDPQQINRMNS", "protease stability score": 0.885}
{"sequence": "DRDLNRHVKRFMDIIQNGDPDKAMEMVDPNVEFHVGDKRVHGQEELRELIKKEHDEQRKEIDDMRYDDRGSKAKINIEVRVEHNGRPNTVREDWNVEAKNGKIKRMNAKVDQ", "protease stability score": -0.495}
{"sequence": "DRDQEDSFAKKVADVIQTGNPDDMRKLADEDARVDVGDKQYTGREHVDEAVENERKRIDHQQINSFSVNNGQIHATVSYVHNGQTHRFVVNVEIHNGHIKRARWQSK", "protease stability score": 0.273}
{"sequence": "DREAKKRADQYMEVIQNGDPEKFKHQADENVRVEVGNHEYHGRESMAKELKKRRDEIRIDIRRYSIDNQGEKVRIEVDAVAQINGRPRTYSYVFEMTFQNGRIKKFTLQISEDDEQNLKS", "protease stability score": 0.014}
{"sequence": "DREAKNVFEKLTKAFETGNEDDMRKLLDEDVRFNIGDREVHGREQAVEDLKRKRTQMRVDIHHVDQQNEPNRLSVNVRMVVEHNGRPRDVQRHAVFDVHNGRIKSVKEKDRQ", "protease stability score": -0.238}
{"sequence": "DREDESELAMRAAVNAATGNEDEVSKNADPNVRAIYGDKNYDGTENMKDVIRQVRERIDHIELKSFEQHGDHAVARAEAKHNGDESTLVVTARAENGRVKSMRFEIR", "protease stability score": -0.275}
{"sequence": "DREDHEHARTVFHNLQTGDFEEVKSLLDKNAKLTVGDRVLEGRDEIARQIRNELEEIRVEYVSVTFTVEGDKAQVHMVFKAEWNGNPADVRNVLRISQHNGRIKTMFIQISESQLEEYNR", "protease stability score": 0.287}
{"sequence": "DREDLAREMVERLEDIMKHNNEKELVNQMDENVRMTIGDKEYEGREAATKEAHDLFRRADHLRLSVETFNVQGDKAVITFQVVFNHNGRKSHDRVILDFRISGDKVKLVSQTKG", "protease stability score": 0.509}
{"sequence": "DREDNEQVKKILETNDFHRLAEQADKDAKAVVGEKRYHGREHVREALLRLQKQADHLEIDSMDTSGDKVVMRAKLKINGKTMDVTFDVVVHNGRLQHFEMSATTEDDERIQRTANS", "protease stability score": 0.743}
{"sequence": "DREDQEEVARHLVEVLERGDPQKMLELADPNVRAEVGDKRYHGREDLKSIMDELSRQVDRIQVVHLDVKGNTVRVTVKNRVNGVVVDLVIIFHFRNGKLRDVTIDARNEEQLKKREG", "protease stability score": 0.754}
{"sequence": "DREDTAREAAHEAIKIWKTGDPEKLKELFDPNVKVKIGDRTVHGREELVRQIRHEREQVDHLSFDLEDYKMDGDQMHVVVRFTANRNGRRTEDKQVYNASFHNGQFRIHEMNKK", "protease stability score": -0.356}
{"sequence": "DREEAKKIRKNWETNNWDHFAHQADENVRVRVGDKKYHGHHKLLEIMHQIEKRIDHARFDHIDLDGEKLTVDFQMVVNGKKVRYVMFIKVSNGRIKEVNIQFTSEEEERRAQEALR", "protease stability score": 0.732}
{"sequence": "DREEAKKVAEKAAKYFQNWNVEQLLKLIPDGGKYRIADEERHGPDVIKEVVEKQQRMGLEVEVKEVHAEGDTVHTVLDYRLGDTTATVHIQAKVQGGRIDEVQVDIPEEAQKMLKQG", "protease stability score": 0.401}
{"sequence": "DREEHASQLFRDMQEVYHNNDPSKFKHLVDENVTRDVGDKTVHGQDEMAREMEKEARRVDKVRFDVRDVKSNNGRIKVRFVVTHNENGRERSSDVTVRFQVSNGRLVIESQTET", "protease stability score": -0.206}
{"sequence": "DREEKVREALETLQKAFRTGDPRLFVEQLDPNVRIEVGDKTVHGREQASEWAKRMRDKFDHFEVKIHDMSVQGDKFSVKVSLRQDVNGTDVQRDNHYTIVFHNGRVHVQNINNK", "protease stability score": 0.644}
{"sequence": "DREEQKKVAKHMDDLVRTGDPREATDLIDPNAKADVGDKQYHGREQLHKLFKEQHERADHADLKSFDAHNGKVEVNVIIQVNGRRHRVIYHADADNGRVKFVSVRSS", "protease stability score": -0.164}
{"sequence": "DREEQSEFAKKFLEVVMHGDPKKIRKLADPNAKADVGDKKYHGRESMAKWAHDFRKEVDHIEFKDLKVDGETARLDVVYDVNGHKERQVVVVTAHNGRVKHMQVEEG", "protease stability score": -0.18}
{"sequence": "DREERARQLLRELLKALETGDEDTAANQADPNVRVSVGDRTYHGREQYRTFLRKVAERVDHLEVRVDRVTQDNGQIHMDMTVRHEKNGRTHRKEFVIQIDVQGDKNRFVQMRHK", "protease stability score": -0.163}
{"sequence": "DREERHRAEQWLNAIKTNNPDDVVEQADKDVRLEVGEERVSGRSELRKEVDKDRKRWDFEIDHVDIKVHNGRIHMTVDVVVRHNGKPDKQEQEYTIEFSNGRARTIVARQNK", "protease stability score": -0.229}
{"sequence": "DREERKKIAQTILKIFETGDHKKFKRQIDPNVEVVVGDRTYKGRTQATKAFNEIQEKVDEVDVKTVHYKGDHAIVDAVLVINGRRVTVYFHLTIHNGRVKSISMQFRDEEDERKFRG", "protease stability score": 0.367}
{"sequence": "DREEVKKIKRLIETNDWRTLAQQADENVEIVYGNKTIHGREQALKFWDILRKHADHIEIKRFDNQGDKVRVNMTVEVNGRHITMNMNIVFHNGRLKEVEIRVTDEKQLKEIEDLVQ", "protease stability score": 1.59}
{"sequence": "DREEVRQVDQWMKNQQRNNPDELVKLADPNVEFRIGDKTVHGMRRYADDVRRKREHIRLEFKHMKIEDQNGRVILRAKAQREHNGKPETFTMQITFEAHNGRIKKAVITTQK", "protease stability score": 0.044}
{"sequence": "DREIQHQVTELLEARRRGDEKRLQQNFDPNARMRIGDKEWHGMDTAAEEIAHEQREMRFDVKSIEVRVSGNKVSVDNRYVLEHDGRPHEFVQHDDVEMSNGKFKTAEVKHDG", "protease stability score": -0.408}
{"sequence": "DREKEAHELIEHFVRMLETGDEEKFKEMMDKDAKLHVGDKDVHGRDDVDRHLAQEYKQYDHVHFRVKDVKVRGDTIEAQVEVQFDHNGKTDTRTYRFVMRVDNGDVKFQSVSNS", "protease stability score": 1.45}
{"sequence": "DREKQSEISTMMQKGDPQHLVDLADENAHVEIGNKRVHGRNQIKEYADRFHERVDHYSVRSIEIEGDTVTVTAYFVVNGQNIEWTMQMQNHNGKVKRIRVRFTNEELEKQLDKALS", "protease stability score": 0.846}
{"sequence": "DRELNQLFRDYVHALKTGDEDELRKQADPNVRIEIGDKEWHGMEKIATEQKKRHDEIRVQIDVKEVSVHNGRVEAELEVVDQQNGRPEKRKVTVTAEYENGKLQHQRYQSDG", "protease stability score": -0.442}
{"sequence": "DRELRQNLHEFWKQQETGNPDELRKMVDPNARIVIGDKTYSGMDNAAQRMAESNQELSVDIKRLDLQASNGRVTIKLDAVKNHNGQPSRKTVTQTIRIHNGRIKHISMREDG", "protease stability score": -0.448}
{"sequence": "DREMLKDVKRLLEVINKGNEDEMRKMVDPNAKFVIGDKEITGREEFAKQMKRHKDEIRIDIKVKHLTAKGNRATVRATATRDHNGQPQSFKVTMRVTFSNGKVKKVHYDYTK", "protease stability score": 0.065}
{"sequence": "DREQAERLIRIMENERTGDPDKVVEMVDPNAKFKVGNTTYKGREELRKEVETRQKKARFEMSIQDYSVHGDTASIRYTLVINVNGQPHESTFNLEARFHNGKVRELHVKFDEQRMRDIQS", "protease stability score": 0.49}
{"sequence": "DREQQHVAREFLEAHNEGDEDRMVQLADPNARVHVGDKEVHGREELKKWVRDVEKKMNVQIDVRSIHAHNGKIRITARISFKINGEPRSDRIRFDFRAHNGTLKDFHLKVSEEQRKKKQQ", "protease stability score": 0.075}
{"sequence": "DRERLADELRRRLEKVMTTGDPTELDKLMDPNARILYGDQKFHGREHVKEFAKTLNDQYDHVTIRLVSYDIKNGEIHIVVDVVFRHNGQTRTKRINFVARVHGDKVKIESINIP", "protease stability score": 1.3}
